Experimental data: the supplement of paper PMC9732359
± gives the uncertainty stated by the source.

Assay: protein stability index of a GFP-peptide fusion (yeast GPS) (PSI 1-4); higher = more stable; sorted into four equal gates, so the index is relative within each strain
Outline: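 The protein stability index combines read frequencies across sorting gates, each weighted by its gate number and then summed. To obtain those frequencies, a pooled yeast library of GFP fusions to tiled 17-residue yeast protein peptides, on a plasmid also expressing Cherry, was grown to mid-log phase in leucine-free medium. The cells were sorted into four equal gates by GFP/Cherry ratio before plasmid amplification by PCR and Illumina sequencing.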

| Sequence | protein stability index (doa10∆) | protein stability index (pdr5∆) | protein stability index (san1∆) | protein stability index (ubr1∆) |
| --- | --- | --- | --- | --- |
| NNNEDNENNNNSSEKNN [MED2] | 3.11 ± 0.052 | 3.37 ± 0.043 | 3.2 ± 0.039 | 3.15 ± 0.048 |
| EEIVVVASADYESQTFS [PRP8] | 3.14 ± 0.069 | 3.5 ± 0.095 | 3.24 ± 0.054 | 3.3 ± 0.057 |
| QSNYGIYSSDAQGDPNL [NUT1] | 3.03 ± 0.077 | 2.92 ± 0.065 | 2.51 ± 0.056 | 3.06 ± 0.063 |
| VLVYDDKLEKVTHDCYR [RPC34] | 2.57 ± 0.1 | 3.18 ± 0.053 | 2.94 ± 0.069 | 2.96 ± 0.062 |
| ELPTQLALEIIVRPAKG [RRP46] | 1.52 ± 0.041 | 1.57 ± 0.044 | 1.49 ± 0.079 | 1.84 ± 0.045 |
| ANSESGHYQAFIRDELD [UBP6] | 3.31 ± 0.28 | 2.76 ± 0.11 | – | 2.66 ± 0.17 |
| KAIRGMVSHKTARGKAA [RPL16B] | 1.94 ± 0.056 | 2.01 ± 0.057 | 2.14 ± 0.087 | 2.62 ± 0.039 |
| DVNIVNRRLVYSRILKS [YCG1] | 1.36 ± 0.1 | 1.16 ± 0.079 | 1.38 ± 0.17 | 1.21 ± 0.059 |
| LKDIVGQTSRTVTPAPN [ITC1] | 2.97 ± 0.064 | 3 ± 0.041 | 2.9 ± 0.049 | 2.95 ± 0.044 |
| IIDHIPGHSLLLSIKLP [SNF5] | 1.96 ± 0.066 | 1.61 ± 0.045 | 1.53 ± 0.11 | 2.23 ± 0.04 |
| EVYRTSLNTKKNEKLIL [SMC3] | 1.75 ± 0.082 | 1.96 ± 0.074 | 2.73 ± 0.13 | 2.35 ± 0.1 |
| VRSAEYYAKKRAFTKKV [RPL16B] | 2.66 ± 0.1 | 2.18 ± 0.066 | 2.61 ± 0.091 | 3.1 ± 0.063 |
| LREKEDKKNSSDPNNQS [YJL039C/NUP192] | 3.06 ± 0.11 | 3.09 ± 0.13 | 3.17 ± 0.099 | 3.33 ± 0.071 |
| KTGTKPAAVFAETLKHD [RPL4B] | 2.17 ± 0.078 | 1.95 ± 0.18 | 1.63 ± 0.16 | 2 ± 0.15 |
| GASVISLTKDKSIRKDT [SIR4] | 3 ± 0.065 | 3.23 ± 0.055 | 3.06 ± 0.076 | 3.13 ± 0.072 |
| KLDTEVKNTNANPVVAT [SWP82] | 1.94 ± 0.069 | 2.38 ± 0.082 | 2.54 ± 0.08 | 1.86 ± 0.05 |
| AKKHKLNAITLDGDRAD [SMC3] | 2.37 ± 0.21 | 2.66 ± 0.28 | – | – |
| LKGKINNEMKSLQRSKS [SMC1] | – | 3.34 ± 0.19 | 3.11 ± 0.2 | 3.44 ± 0.099 |
| LDQLLVLEKKTRQASDL [RPN5] | 3.19 ± 0.12 | 2.95 ± 0.1 | 3.1 ± 0.07 | 2.71 ± 0.097 |
| DLGITEKNDQNNDDDDN [MCD1] | – | 2.97 ± 0.14 | – | 3.41 ± 0.24 |
| TIGAIFLNHAFDYMNRY [CDC53] | 2.04 ± 0.065 | 2.1 ± 0.066 | 1.78 ± 0.076 | 1.89 ± 0.046 |
| VILFDSDWNPQADLQAM [ISW2] | 3.12 ± 0.088 | 2.38 ± 0.08 | 2.84 ± 0.11 | 2.15 ± 0.057 |
| RPYGVGLLIIGYDKSGA [PRE5] | 1.68 ± 0.12 | 1.08 ± 0.14 | – | 1.06 ± 0.12 |
| FVPVPALSAYHKVQTKL [RPS7B] | 2.42 ± 0.046 | 2.52 ± 0.046 | 2.27 ± 0.057 | 2.55 ± 0.032 |
| TRSALKLVRESELLGGT [QCR2] | 2.51 ± 0.29 | 2.5 ± 0.24 | 2.21 ± 0.16 | – |
| EDNAGVIANPKGEMKGS [RPL23A] | 1.82 ± 0.18 | 1.92 ± 0.056 | 2.28 ± 0.13 | 1.85 ± 0.059 |
| YENSISKDLRSVWKPIA [IRR1] | 2.58 ± 0.092 | 2.63 ± 0.11 | 2.57 ± 0.064 | 2.54 ± 0.05 |

| Sequence | protein stability index (doa10∆) | protein stability index (pdr5∆) | protein stability index (san1∆) | protein stability index (ubr1∆) |
| --- | --- | --- | --- | --- |
| QKNYADPEKDSINATAL [SIN4] | 1.9 ± 0.042 | 1.71 ± 0.047 | 1.61 ± 0.087 | 1.59 ± 0.032 |
| VENDTFIERNFTPQEIE [FAS2] | 2.87 ± 0.083 | 2.32 ± 0.062 | 2.15 ± 0.068 | 3.18 ± 0.05 |
| SALQQIMYQQMLKYRRL [SNF2] | 1.51 ± 0.045 | 1.43 ± 0.036 | 1.44 ± 0.091 | 1.35 ± 0.029 |
| EEELWNSPSKGNSERPS [YIL149C/MLP2] | 3.11 ± 0.1 | 3.38 ± 0.083 | 3.24 ± 0.061 | 3.27 ± 0.095 |
| GNYSHLMEKNRIRKLTG [REC8] | 1.58 ± 0.067 | 2.04 ± 0.061 | 2.56 ± 0.1 | 1.9 ± 0.062 |
| SMIEKGGDWERRNRYKT [RPN7] | 3.01 ± 0.14 | 3.43 ± 0.22 | – | – |
| IQQHARYDCSFCGKKTV [RPL43A] | 2.71 ± 0.23 | 2.94 ± 0.1 | 2.81 ± 0.065 | 3.06 ± 0.066 |
| PSCNNMLLITSGDSGVY [RPC11] | 1.32 ± 0.077 | 1.55 ± 0.22 | – | 2.24 ± 0.17 |
| INAEEIVDFTLPPPPPP [PRP8] | 2.94 ± 0.07 | 3.06 ± 0.053 | 3.01 ± 0.047 | 3.04 ± 0.045 |
| IDYSNSQIRLYAKFKRN [RGR1] | 3.1 ± 0.093 | 2.46 ± 0.1 | 2.45 ± 0.091 | 2.8 ± 0.057 |
| STGDYTFTIQLLKLTKV [YML103C/NUP188] | 1.58 ± 0.075 | 2.92 ± 0.13 | 2.16 ± 0.12 | 2.51 ± 0.11 |
| RRFKNGFQTGSAKATSA [RPL37B] | 3.02 ± 0.066 | 3.08 ± 0.079 | 3.39 ± 0.09 | 3.18 ± 0.06 |
| HGMDFTTDKLRSMVRKW [RPS1A] | 2.42 ± 0.1 | 2.55 ± 0.1 | 2.48 ± 0.19 | 2.9 ± 0.064 |
| GGFEDVEEYTWSSLLNE [RPB2] | – | 3.19 ± 0.17 | 3.12 ± 0.085 | – |
| NLAPKLRNVFLGKCSRI [GRR1] | 2.7 ± 0.048 | 2.43 ± 0.049 | 2.58 ± 0.041 | 2.29 ± 0.049 |
| YASFNDTFVHVTDLSGK [RPS14B] | 2.31 ± 0.098 | 2.88 ± 0.08 | 2.52 ± 0.084 | 2.73 ± 0.094 |
| KDLETLYNKIWTEASSS [ECM29] | 3.24 ± 0.2 | 2.84 ± 0.14 | 2.71 ± 0.091 | 2.51 ± 0.083 |
| LHGLRSFYDAIFFNIPL [YJL039C/NUP192] | 2.61 ± 0.039 | 2.24 ± 0.042 | 2.309 ± 0.022 | 1.9 ± 0.034 |
| LVDKRIDMLPMLLGTDL [DIS3] | 2.17 ± 0.083 | 2.54 ± 0.1 | 2.27 ± 0.08 | 2.34 ± 0.059 |
| RFVMPNQLLAALVAYTP [RRP6] | 1.83 ± 0.041 | 1.84 ± 0.045 | 1.39 ± 0.07 | 1.71 ± 0.032 |
| HNKLNITSDALEGITTT [SMC3] | 3.19 ± 0.16 | 3.09 ± 0.15 | 3.03 ± 0.092 | 3.1 ± 0.092 |
| AGFDPRDDEPKLYQTEP [PRE6] | 3.24 ± 0.084 | 3.03 ± 0.12 | 3.1 ± 0.05 | 3.24 ± 0.07 |
| SEVQRTMLELLNQLDGF [RPT6] | 2.55 ± 0.1 | 2.5 ± 0.083 | 1.86 ± 0.15 | 2.51 ± 0.07 |
| EDDNNNVEKPSSKPAFN [YLR335W/NUP2] | 3.12 ± 0.061 | 3.2 ± 0.071 | 3.14 ± 0.049 | 3.2 ± 0.063 |
| GDTVQFAEYIQANIQLY [PRE1] | 2.11 ± 0.065 | 2.31 ± 0.063 | 2.2 ± 0.064 | 2.04 ± 0.053 |
| VKQIAPAELEGLLDLER [FAS2] | 3.11 ± 0.3 | – | – | – |
| VHELSKRVHTLLTLIVR [ISW2] | 1.34 ± 0.091 | 1.44 ± 0.064 | 1.96 ± 0.16 | 1.37 ± 0.041 |
